According to patent WO1994018227A2:

Molecular target: natural affinity purified heavy chain class I K d molecules
Assay: binding inhibition experiment with radiolabelled ligands

Recombinant murine β2-microglobulin gave an affinity, fold lower than the human β2-microglobulin of 5 times lower.
